Results reported in article PMC12418388, “DDX6 interacts with DDX3X to repress translation in microRNA-mediated silencing” (Nucleic Acids Research, 2025).

Target: T1, GST-DDX6 (wild type), recombinant (UniProt P54823 1-483)
T1 construct: DDX6 (DEAD-box helicase 6); Cloned in pGEX-KG; also called wild-type DDX6; source: E. coli BL21(DE3), purified (Glutathione Sepharose 4B)
T1 sequence (looked up): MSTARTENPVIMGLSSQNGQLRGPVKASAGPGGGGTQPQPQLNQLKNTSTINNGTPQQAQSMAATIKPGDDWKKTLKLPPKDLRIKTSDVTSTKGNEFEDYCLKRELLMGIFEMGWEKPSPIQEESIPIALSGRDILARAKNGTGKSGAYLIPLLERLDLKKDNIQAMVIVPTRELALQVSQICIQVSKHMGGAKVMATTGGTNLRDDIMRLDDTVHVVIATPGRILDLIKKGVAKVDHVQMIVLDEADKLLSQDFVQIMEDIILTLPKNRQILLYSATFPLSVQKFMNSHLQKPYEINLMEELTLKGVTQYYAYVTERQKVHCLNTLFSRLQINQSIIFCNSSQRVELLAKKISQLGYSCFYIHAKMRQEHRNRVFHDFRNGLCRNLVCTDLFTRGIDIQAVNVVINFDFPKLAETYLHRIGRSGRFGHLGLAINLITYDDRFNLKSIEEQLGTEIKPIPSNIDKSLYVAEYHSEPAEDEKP
Assay: BLI; BLItz; 6xHis-MBP-DDX3X^166-590 loaded on Ni-NTA biosensors; GST-DDX6 or GST-DDX6^Mut6 at 125, 250 and 500 nM; 20 mM Tris-HCl pH 8.0, 150 mM KCl, 0.02% Tween 20, DTT, 1 mg/ml BSA; global fit to a 1:1 model
Settings: both partners purified

B1: 6xHis-MBP-DDX3X^166-590 (domain or fragment, UniProt Q62167 166-590, looked up)
chain: IPVEATGNNCPPHIESFSDVEMGEIIMGNIELTRYTRPTPVQKHAIPIIKEKRDLMACAQTGSGKTAAFLLPILSQIYADGPGEALRAMKENGRYGRRKQYPISLVLAPTRELAVQIYEEARKFSYRSRVRPCVVYGGAEIGQQIRDLERGCHLLVATPGRLVDMMERGKIGLDFCKYLVLDEADRMLDMGFEPQIRRIVEQDTMPPKGVRHTMMFSATFPKEIQMLARDFLDEYIFLAVGRVGSTSENITQKVVWVEEIDKRSFLLDLLNATGKDSLTLVFVETKKGADSLEDFLYHEGYACTSIHGDRSQRDREEALHQFRSGKSPILVATAVAARGLDISNVKHVINFDLPSDIEEYVHRIGRTGRVGNLGLATSFFNERNINITKDLLDLLVEAKQEVPSWLENMAFEHHYKGSSRGRSKS
notes: Cloned in pMCSG9; source: E. coli BL21(DE3), purified (Ni-NTA)
Kd: 389 nM
